Test results reported in patent publication US20250297004A1, “NECTIN-4 BINDING AGENTS” (INNATE PHARMA, priority 2022, published 2025).
Changes are numbered by the printed parent chain.

Legend:
[1] = target: T1, human Nectin-4 Mutant 4 (human, UniProt Q96NY8 32-510); test: binding to HEK293T cells expressing Nectin-4 mutant
T1 construct: Expressed on transfected HEK293T cells; also called A72P/G73N/G75S
T1 chain: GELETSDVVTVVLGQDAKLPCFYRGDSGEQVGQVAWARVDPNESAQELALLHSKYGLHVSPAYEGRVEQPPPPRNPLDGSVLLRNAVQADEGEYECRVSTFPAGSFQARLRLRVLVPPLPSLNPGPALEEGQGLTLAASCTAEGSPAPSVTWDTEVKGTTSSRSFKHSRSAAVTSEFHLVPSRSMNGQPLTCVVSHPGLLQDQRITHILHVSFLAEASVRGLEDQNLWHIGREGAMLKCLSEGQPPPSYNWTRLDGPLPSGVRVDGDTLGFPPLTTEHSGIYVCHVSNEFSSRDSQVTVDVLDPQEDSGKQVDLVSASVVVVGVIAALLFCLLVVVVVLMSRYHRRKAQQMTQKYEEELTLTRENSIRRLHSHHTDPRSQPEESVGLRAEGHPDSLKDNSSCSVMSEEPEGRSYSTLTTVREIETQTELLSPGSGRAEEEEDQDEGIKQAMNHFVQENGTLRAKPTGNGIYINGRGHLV

[2] = target: T2, human Nectin-4 Mutant 2 (V90S/P92A/A93S/E95A/G96D) (Homo sapiens, UniProt Q96NY8, A93S/E95A/G96D/P92A/V90S); test: Epitope mapping using Nectin-4 point mutants; assay type: binding
T2 construct: expressed in transfected cells; host or cells: HEK293T
T2 sequence (Q96NY8 32-510 V90S/P92A/A93S/E95A/G96D): T1 chain with P41A, N42G, S44G, V59S, P61A, A62S, E64A, G65D
From the text: (§1) Combined with the published structures of the Nectin-4 domains, Nectin-4 mutations at surface exposed amino acids residues were designed. Nectin-4 domain structure was modelled based on Protein Data Bank reference: 4FRW (domains V et C1). Human Nectin-4 used was NCBI Reference Sequence: NP_112178.2, mouse Nectin-4 used was NCBI Reference Sequence: AAL79833.1, cynomolgus Nectin-4 used was NCBI Reference Sequence: XP_005541277.1, rat Nectin-4 used was NCBI Reference Sequence: NP_001102546.1. The cells expressing the Nectin-4 mutants are then be used for testing anti-Nectin-4 antibodies for loss of binding to different Nectin-4 mutants to identify antibodies that bind to the same site on Nectin-4. […] FIGS. 8A and 8B show different view of a molecular model of the human Nectin-4 protein, indicating the position of substituted residues in mutants 1, 2, 3, 4, 5, 6, 7, 8 and 9.
(§2) Nectin-4 mutants were generated by PCR. The sequences amplified were run on agarose gel and purified using the Macherey Nagel PCR Clean-Up Gel Extraction kit. The purified PCR products generated for each mutant were then ligated into an expression vector, with the ClonTech InFusion system. The vectors containing the mutated sequences were prepared as Miniprep and sequenced. After sequencing, the vectors containing the mutated sequences were prepared as Midiprep using the Promega PureYield™ Plasmid Midiprep System. HEK293T cells were grown in DMEM medium (Invitrogen), transfected with vectors using Invitrogen's Lipofectamine 2000 and incubated at 37° C. in a CO2 incubator for 48 hours prior to testing for transgene expression. The targeted amino acid mutations are shown in Table 13 below, listing the residue present in wild-type Nectin-4/position of residue/residue present in mutant Nectin-4, with position reference being to the Nectin-4 protein with leader peptide shown in SEQ ID NO: 1.
(§3) (+) means that antibodies-Nectin-4 association occurs.

[3] = target: T3, human Nectin-4 Mutant 8 (T190A/T191Q/S193A) (Homo sapiens, UniProt Q96NY8, S193A/T190A/T191Q); test: Epitope mapping using Nectin-4 point mutants; assay type: binding
T3 construct: expressed in transfected cells; host or cells: HEK293T
T3 sequence (Q96NY8 32-510 T190A/T191Q/S193A): T1 chain with P41A, N42G, S44G, T159A, T160Q, S162A
From the text: as §1, §2, §3

[4] = target: T4, human Nectin-4 Mutant 6 (H238A/I239T/H241Q) (Homo sapiens, UniProt Q96NY8, H238A/H241Q/I239T); test: Epitope mapping using Nectin-4 point mutants; assay type: binding
T4 construct: expressed in transfected cells; host or cells: HEK293T
T4 sequence (Q96NY8 32-510 H238A/I239T/H241Q): T1 chain with P41A, N42G, S44G, H207A, I208T, H210Q
From the text: as §1, §2, §3

B1: chimeric parental 5E7 antibody (antibody, V domains shown)
VH: QVQLQQPGAELVKPGASVKLSCKASGYIFTSYWMHWVKQRPGQGLEWIGEIDPSDSYTNYNQKFKGKATLTLDKSSSTTYMQLSSLTSEDSAVYYCVRGYGNYGDYWGQGTTLTVSS
VL: DVVMTQAAFSNPVTLGTSASISCRSSKSLLHSNGITYLYWYLQKPGQSPQLLIYQMSNLASGVPDRFSSSGSGTDFTLRISRVEAEDVGVYYCAQNLELPWTFGGGTKLEIKR
notes: Chimeric antibody, murine variable domains with human constant regions; also called ch5E7; CHG1-M-1N4-5E7
binding result [1]: binds

B2: N41 (antibody, V domains shown)
VH: QVQLKQSGPGLVQPSQSLSITCTVSGFSLTNYGVHWVRQSPGKGLEWLGVIWSGGSTDYNAAFISRLSISKDTSKSQVFFKMNSLQADDTAIYYCARELIHAMDNWGQGTSVTVSS
VL: DIQMTQSPASLSVSVGETVTITCRASENIYSNLAWYQQKQGNSPQLLVFAATNLADGVPSRFSGSGSGTQYSLKINSLQSEDFGTYYCQHFWGTPTFGGGTKLEIK
association with Mutant 2 [2]: + | association with Mutant 8 [3]: + | association with Mutant 6 [4]: + | binding result [1]: binds

B3: 5E7 (antibody, V domains shown)
VH: QVQLQQPGAELVKPGASVKLSCKASGYIFTSYWMHWVKQRPGQGLEWIGEIDPSDSYTNYNQKFKGKATLTLDKSSSTTYMQLSSLTSEDSAVYYCVRGYGNYGDYWGQGTTLTVSSASTKGP
VL: DVVMTQAAFSNPVTLGTSASISCRSSKSLLHSNGITYLYWYLQKPGQSPQLLIYQMSNLASGVPDRFSSSGSGTDFTLRISRVEAEDVGVYYCAQNLELPWTFGGGTKLEIKRTVAAP
association with Mutant 2 [2]: + | association with Mutant 8 [3]: + | association with Mutant 6 [4]: +
